Here are results for 1 protein from patent US7569660 (UNIVERSITY OF CHICAGO, dated 2009).

This data set deals with the molecule itself.

B1: NM R2E2 repeat expansion variant (other)
chain: MSDSNQGNNQQNYQQYSQNGNQQQGNNRYQGYQAYNAQAQPAGGYYQNYQGYSGYQQGGYQQYNPQGGYQQYNPQGGYQQYNPDAGYQQQYNPQGGYQQYNPQGGYQQQFNPQGGRGNYKNFNYNNNLQGYQAGFQPQSQGMSLNDFQKQQKQAAPKPKKTLKLVSSSGIKLANATKKVGTKPAESDKKEEEKSAETKEPTKEPTKVEEPVKKEEKPVQTEEKTEEKSELPKVEDLKISESTHNTNNANVTSADALIKEQEEEVDDEVVND
With B1, the “rate of conversion to a β-sheet rich structure relative to wild-type NM” value was roughly 2 fold.
